# Residue numbers refer to the chain shown, from its start.
# T1: potato lectin (Solanum tuberosum, UniProt Q9S8M0)
# T1 construct: purchased Sigma
# T1 sequence (Q9S8M0 whole entry, looked up): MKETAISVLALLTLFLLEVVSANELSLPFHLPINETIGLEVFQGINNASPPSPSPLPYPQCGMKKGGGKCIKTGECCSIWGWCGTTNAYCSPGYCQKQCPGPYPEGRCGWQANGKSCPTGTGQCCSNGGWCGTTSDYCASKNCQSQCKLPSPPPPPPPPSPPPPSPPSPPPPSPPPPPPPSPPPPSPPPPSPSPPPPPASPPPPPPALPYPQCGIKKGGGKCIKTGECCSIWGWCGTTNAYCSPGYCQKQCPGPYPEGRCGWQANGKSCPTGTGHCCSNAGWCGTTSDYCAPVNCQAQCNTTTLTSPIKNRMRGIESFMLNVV
# B1: VHH 7D2: VHH sequence; SEQ ID NO:28 by order of the list (protein, listed as Lama glama)
# VHH: QVQLQESGGGLVQPGRSLKVACAAAGFSLRYYGIGWFRQAPGKEREAVSCTSANDGSTYYRDSVRGRFTISRDDGKNTVYLQMNRLKPEDTAVYYCATTDCDATSWGTWINYYGQGTQVTVSS
# modifications: 7D2
# B2: VHH 5C4: VHH sequence; SEQ ID NO:18 by order of the list (protein, listed as Lama glama)
# VHH: QVQLQESGGGLVQPGGSLRLSCAASGFSLRYFGIGWFRQVAGKEREPVSCSNVRDGNTYYADSVKGRFTISRDNVRNTLYLQMNSLKPEDTAVYSCATTDCEATTWGTYRGYFGQGTQVTVSS
# modifications: 5C4
# B3: VHH 5G5: VHH sequence; SEQ ID NO:24 by order of the list (protein, listed as Lama glama)
# VHH: B2 VHH with V40A, P47G, V48I, T78M, S85N, E89D
# modifications: 5G5
# B4: Bivalent VHH 3E6: Uvitex-containing microcapsules coupled with bivalent VHH, a fusion of two VHH with a 9 glycine-serine linker (conjugate)
# chain: QVQLQESGGGLVQPGGTLSLSCAASGFNVRWYGMGWFRQAPGKEREGVACISALQETTAYADSVKGRFTLSRDNPKNTLSLQMNNLQPEDTGVYYCATTDCDDSSRMTYTSYLGQGTQVTVSSGGGGSGGGSQVQLQESGGGLVQPGGTLSLSCAASGFNVRWYGMGWFRQAPGKEREGVACISALQETTAYADSVKGRFTLSRDNPKNTLSLQMNNLQPEDTGVYYCATTDCDDSSRMTYTSYLGQGTQVTVSSAAAEQKLISEEDLNGAAHHHHHH
# B5: VHH5E5: VHH sequence; SEQ ID NO:21 by order of the list (protein, listed as Lama glama)
# VHH: QVQLQESGGGLVQPGGSLTLSCTASGFAMRRFGIGWFRQVVGKEREGVSCSNVHDGSTYYANYVKGRFTIVRDDTKNMLYLHMNSLRAEDTGVYSCATTDCEATAWGTYRGYFGQGTQVTVSS
# modifications: 5E5
# B6: VHH5F5: VHH sequence; SEQ ID NO:22 by order of the list (protein, listed as Lama glama)
# VHH: QVQLQESGGGLVQPGGSLRLSCAASGFPLGLYGIGWFRQAPGKEREAVSCDSVDDGSTNYLDSVKGRFTISRDNAKNMVYLQMNSLKPEDTAVYYCATTDCDAKAWGTWTNYRGQGTQVTVSS
# modifications: 5F5
# B7: VHH7A2: VHH sequence; SEQ ID NO:26 by order of the list (protein, listed as Lama glama)
# VHH: QVQLQESGGGSVHPGGSLTLSCLASGFSLSNYGMGWFRQAPGKEREAVSCTSVPNGHIYYAESVKGRFTIVRDNAGNSVYLQMNSLKPEDAANYFCATTDCEAAHWGTWVNYYGQGTQVTVSS
# modifications: 7A2
# B8: VHH7C2: VHH sequence; SEQ ID NO:27 by order of the list (protein, listed as Lama glama)
# VHH: QVQLQESGGGLVQPGGSLRLSCAAFGFALANYGIGWFRQAPGKDRERVSCDSVDDGSTHYSNSVQGRFTIIRDNAKNTVFLQMNSLKAEDTAVYYCATTDCDATTWGTWINYRGQGTQVTVSS
# modifications: 7C2
# Experiments:
# [1] = test system: gum arabic; experiment: VHH binding to gum arabic in ELISA; parameters: species or system acacia tree
# Method: Titration of VHH antibody fragments was performed on ELISA plates (Maxisorp, Nunc) coated with 100 μl per well 100 μg/ml gum arabic in 50 mM carbonate pH 9.6. Plates were coated at 4° C. overnight and coating was continued at room temperature for 1 hour on the next day. Plates were washed three times with PBS/0.05%-TWEEN®-20 and blocked with 5% skimmed milk in PBS for 1 hour. Four-fold serial dilutions of purified VHH antibody fragments were prepared in 1% MPBS/0.05%-TWEEN®-20 in polypropylene 96-well plates. Antibody concentrations ranged from 3 μg/ml to 12 ng/ml. Antibody dilutions were transferred to the gum arabic-coated plates and VHH antibody fragments were allowed to bind for 1 hour at room temperature. Bound VHH were detected with sequential incubations with monoclonal mouse anti-histidine antibodies (Abd Serotec) and rabbit anti-mouse IgG whole molecule antibodies conjugated with alkaline phosphatase (RaM/AP) (Sigma) in 1% MPBS/0.05%-TWEEN®-20. Unbound antibodies were removed by washing three times with PBS/0.05%-TWEEN®-20 after each antibody incubation. The plates were washed an additional two times with PBS and 100 μl pNPP disodium hexahydrate substrate (Sigma) was added to each well. The absorbance at 405 nm was measured and plotted as function of antibody concentration (see Table 1).
# [2] = target: T1, potato lectin; experiment: VHH binding to potato lectin in ELISA; conditions: Table 2; Blank (no antigen coating); VHH 3 μg/ml
# Method: ELISA plates (Maxisorp, Nunc) coated with 100 μl per well 100 μg/ml potato lectin (Sigma) in PBS were coated at 4° C. overnight and coating was continued at room temperature for 1 hour on the next day. Plates were washed three times with PBS/0.05%-TWEEN®-20 and blocked with 5% skimmed milk in PBS for 1 hour. VHH (3 μg/ml) were transferred to the potato lectin-coated plates and VHH antibody fragments were allowed to bind for 1 hour at room temperature. Bound VHH were detected with sequential incubations with monoclonal mouse anti-histidine antibodies (Abd Serotec) and rabbit anti-mouse IgG whole molecule antibodies conjugated with alkaline phosphatase (RaM/AP) (Sigma) in 1% MPBS/0.05%-TWEEN®-20. Unbound antibodies were removed by washing three times with PBS/0.05%-TWEEN®-20 after each antibody incubation. The plates were washed an additional two times with PBS and 100 μl pNPP disodium hexahydrate substrate (Sigma) was added to each well and the absorbance at 405 nm was measured (see Table 2).
# [3] = target: T1, potato lectin; experiment: ELISA-like assay, microcapsules with monovalent or bivalent VHH, potato lectin; format: binding; parameters: Surface area of bound microcapsules: unit not given here
# Text: (§1) Bivalent VHH constructs were produced in bacteria by cloning two VHH sequences in tandem into the pASF22 vector, creating a fusion of two VHH with a 9 glycine-serine linker (GGGGSGGGS (SEQ ID NO:50)) in between the two VHH. pASF22 is an in-house produced pMES derivative. The tags that were used were C-terminal c-Myc (EQKLISEEDLN (SEQ ID NO:51)) and hexahistidine (HHHHHH (SEQ ID NO:52)). A triple alanine linker (AAA) was placed in between the C-terminal end of the VHH and the c-Myc tag and a glycine-alanine-alanine (GAA) linker was used in between the C-terminal end of the c-Myc tag and the hexahistidine tag. The complete sequence C-terminal of the bivalent VHH that was used: AAA-EQKLISEEDLN-GAA-HHHHHH (SEQ ID NO:53). Fresh overnight cultures were produced by starting from colony streaks and inoculation of 2×TY media supplemented with 2% glucose and 100 μg/ml ampicillin. The overnight cultures were used to inoculate fresh cultures 1:100 in 2×TY media with 0.1% glucose and 100 μg/ml ampicillin. After growing at 37° C. in a shaking incubator for 3 hours, IPTG was added to a 1 mM final concentration and recombinant bivalent VHH were produced during an additional incubation for 4 hours. Cells were spun down and resuspended in 1/50th of the original culture volume of PBS and incubated with head-over-head rotation at 4° C. for 30 minutes. Spheroplasts were spun down by centrifugation at 3,000 g and 4° C. for 20 minutes. Supernatants were transferred to fresh tubes and centrifuged again at 3,000 g and 4° C. for 20 minutes. The supernatant was collected and sodium chloride concentration was adjusted to 500 mM and imidazole concentration to 20 mM. Hexahistidine-tagged bivalent VHH were purified from the extracts using HisTrap FF Crude 5 ml IMAC columns (GE Lifesciences) and HiLoad 16/60 Superdex 75 prep grade gel filtration column (GE Lifesciences) on an AKTAxpress system (GE Lifesciences) following standard procedures.
# (§2) Next, it was investigated if binding of microcapsules to surfaces could be improved by using targeting agents comprising multivalent VHH. A series of parallel couplings was performed with equal amounts of monovalent VHH, bivalent VHH, and unrelated VHH. Success of coupling of VHH and multivalent VHH were analyzed as described in Example 4. An ELISA-like assay was performed using high bind half area microplates (Greiner Bio-One) coated with 5 μg/well potato lectin. Control wells included blank wells or wells coated with unrelated antigens. Plates were washed three times with PBS with 0.05%-TWEEN®-20 and blocked with 5% skimmed milk in PBS for 1 to 2 hours. VHH-coupled Uvitex-containing microcapsules were diluted to appropriate densities in 1% skimmed milk in PBS with 0.05%-TWEEN®-20. Five-fold serial dilution series were prepared and allowed to bind to the surface to compare binding of microcapsules coupled with monovalent or bivalent VHH. Microcapsules were added to the antigen-coated or control wells and allowed to bind for 1 hour. Unbound microcapsules were removed by washing five times with PBS with 0.05%-TWEEN®-20. The bottoms of ELISA plate wells were analyzed for bound microcapsules on a macrozoom microscope system (Nikon). Microcapsules were counted using Volocity image analysis software (Perkin Elmer). A DAPI filter was used to visualize Uvitex microcapsules. […] The surface area of microcapsules with coupled bivalent VHH was 15-fold above the surface area of blank microcapsules applied at this microcapsule density while the surface area of microcapsules with monovalent VHH was only six-fold above the surface area of blank microcapsules applied at this microcapsule density. This difference could be explained by an increase in binding strength due to additional avidity of the bivalent VHH compared to monovalent VHH, it could also be that the use of bivalent VHH increases flexibility and spacer length of the coupled targeting agents on microcapsules, or a combination of both.
# [4] = ELISA-like assay, microcapsules with monovalent or bivalent VHH, unrelated antigen; format: binding; parameters: unit not given beside the values; conditions: Uvitex microcapsules
# Text: as §1, §2
# [5] = Table 2, gum arabic coating, VHH 3 μg/ml
# [6] = [VHH] 3 μg/ml (200 nM), gum arabic − (well without gum arabic)
Molecule,"absorbance at 405 nm [1, 5]","absorbance at 405 nm [1, 6]",absorbance at 405 nm [2],other results
B1,0.274,0.074,0.072,
B2,0.873,0.082,0.071,
B3,0.751,0.077,0.073,
B4,,,,"more microcapsules retained in the well compared to microcapsules with monovalent VHH ([3]; application of 25-fold less microcapsules, potato lectin): 160%; more microcapsules retained in the well compared to microcapsules with monovalent VHH ([3]; highest density of microcapsules applied (fully cover the bottom of the well), potato lectin): 17%; Surface area of bound microcapsules ([3]; no coating (first series, with potato lectin rows), surface coverage 100%, Uvitex microcapsules): 66.176; binding to antigen-coated surface when coupled to a microcapsule ([3]; potato lectin 5 μg/well, Uvitex microcapsules): capable of binding specifically; Surface area of bound microcapsules ([3]; potato lectin, surface coverage 4%, Uvitex microcapsules): 155.759; Surface area of bound microcapsules ([3]; potato lectin, surface coverage 20%, Uvitex microcapsules): 511.303; Surface area of bound microcapsules ([3]; potato lectin, surface coverage 100%, Uvitex microcapsules): 490.546; Surface area of bound microcapsules ([4]; no coating (second series, with unrelated antigen rows), surface coverage 100%): 55.841; Surface area of bound microcapsules ([4]; unrelated antigen, surface coverage 20%): 22.114; Surface area of bound microcapsules ([4]; unrelated antigen, surface coverage 100%): 45.677"
B5,,0.073,,
B6,,0.090,,
B7,,0.075,,
B8,,0.077,,

# Source: US8598081B2, “Specific delivery of agrochemicals” (priority 2010, dated 2013)
